Measured values as given in patent US20120129159A1 (MIT, published 2012).

How the values were obtained:
mCherry-FKBP-LAP1 = mCherry-FKBP-LAP1 (UniProt P62942 2-108); assay: cell-based or functional assay
FKBP-LAP1 = FKBP-LAP1 (UniProt P62942 1-108, limits assumed); assay: cell-based or functional assay
Sequence of FKBP-LAP1 (P62942 other isoform, or with tags, fused parts or gaps limits assumed): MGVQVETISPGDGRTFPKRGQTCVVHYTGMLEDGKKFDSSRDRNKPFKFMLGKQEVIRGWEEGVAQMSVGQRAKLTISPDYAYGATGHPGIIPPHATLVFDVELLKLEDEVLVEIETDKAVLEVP

Sequence of mCherry-FKBP-LAP1 (P62942 other isoform, or with tags, fused parts or gaps): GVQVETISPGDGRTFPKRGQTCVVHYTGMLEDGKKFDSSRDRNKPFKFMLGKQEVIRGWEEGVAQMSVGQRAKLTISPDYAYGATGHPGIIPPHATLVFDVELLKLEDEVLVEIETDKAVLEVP
Sequence of FKBP-LAP1, P62942 (P62942 whole entry, looked up): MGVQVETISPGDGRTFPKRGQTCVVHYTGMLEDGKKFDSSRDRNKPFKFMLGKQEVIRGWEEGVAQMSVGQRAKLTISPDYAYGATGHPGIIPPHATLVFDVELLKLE

B1: FRB-LplAW37V (other)
chain: ILWHEMWHEGLEEASRLYFGERNVKGMFEVLEPLHAMMERGPQTLKETSFNQAYGRDLMEAQEWCRKYMKSGNVKDLTQAWDLYYHVFRRISKSTLRLLISDSYDPWFNLAVEECIFRQMPATQRVLFLVRNADTVVIGRAQNPWKECNTRRMEEDNVRLARRSSGGGAVFHDLGNTCFTFMAGKPEYDKTISTSIVLNALNALGVSAEASGRNDLVVKTVEGDRKVSGSAYRETKDRGFHHGTLLLNADLSRLANYLNPDKKKLAAKGITSVRSRVTNLTELLPGITHEQVCEAITEAFFAHYGERVEAEIISPNKTPDLPNFAETFARQSSWEWNFGQAPAFSHLLDERFTWGGVELHFDVEKGHITRAQVFTDSLNPAPLEALAGRLQGCLYRADMLQQECEALLVDFPEQEKELRELSAWMAGAVR
B1 was tested, and the “minimum concentration of mCherry-FKBP-LAP1 required for a signal-to-background ratio >2:1” value (mCherry-FKBP-LAP1) was 6 µM.

B2: FRB-LplA (other)
chain: ILWHEMWHEGLEEASRLYFGERNVKGMFEVLEPLHAMMERGPQTLKETSFNQAYGRDLMEAQEWCRKYMKSGNVKDLTQAWDLYYHVFRRISKSTLRLLISDSYDPWFNLAVEECIFRQMPATQRVLFLWRNADTVVIGRAQNPWKECNTRRMEEDNVRLARRSSGGGAVFHDLGNTCFTFMAGKPEYDKTISTSIVLNALNALGVSAEASGRNDLVVKTVEGDRKVSGSAYRETKDRGFHHGTLLLNADLSRLANYLNPDKKKLAAKGITSVRSRVTNLTELLPGITHEQVCEAITEAFFAHYGERVEAEIISPNKTPDLPNFAETFARQSSWEWNFGQAPAFSHLLDERFTWGGVELHFDVEKGHITRAQVFTDSLNPAPLEALAGRLQGCLYRADMLQQECEALLVDFPEQEKELRELSAWMAGAVR
B2 was tested, and the “+/- rapamycin signal-to-background ratio of lipoylation, anti-lipoic acid immunoblot, purified proteins at 10 µM each” value (FKBP-LAP1) was > 12 ratio (:1), the “signal-to-background ratio of lipoylation in COS7 cells (+/- 100 nM rapamycin), cell lysis and immunoblot” value (FKBP-LAP1) was 15 ratio (:1) and the “signal-to-noise ratio of lipoylation in COS-7 cells with 3 minutes of lipoic acid treatment” value (FKBP-LAP1) was 2.5 ratio (:1).

B3: LplAW37V (protein)
chain: STLRLLISDSYDPWFNLAVEECIFRQMPATQRVLFLVRNADTVVIGRAQNPWKECNTRRMEEDNVRLARRSSGGGAVFHDLGNTCFTFMAGKPEYDKTISTSIVLNALNALGVSAEASGRNDLVVKTVEGDRKVSGSAYRETKDRGFHHGTLLLNADLSRLANYLNPDKKKLAAKGITSVRSRVTNLTELLPGITHEQVCEAITEAFFAHYGERVEAEIISPNKTPDLPNFAETFARQSSWEWNFGQAPAFSHLLDERFTWGGVELHFDVEKGHITRAQVFTDSLNPAPLEALAGRLQGCLYRADMLQQECEALLVDFPEQEKELRELSAWMAGAVR
For B3, the “Km of the enzyme for LAP1 (HPLC assay, ligation of coumarin probe to purified FKBP-LAP1)” value (FKBP-LAP1, P62942) was 681 ± 168 µM.
